Measurements: patent US20170002075A1 (AbbVie / Abbott, published 2017)

T1: RAGE-derived peptide 7 (human)
T1 construct: Synthetic peptide with a free carboxyl terminus
T1 peptide: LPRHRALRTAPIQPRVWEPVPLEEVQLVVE

T2: RAGE-derived peptide 1 (human)
T2 construct: Synthetic peptide with a free carboxyl terminus
T2 peptide: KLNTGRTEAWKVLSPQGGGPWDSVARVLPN

T3: RAGE-derived peptide 5 (human)
T3 construct: Synthetic peptide with a free carboxyl terminus
T3 peptide: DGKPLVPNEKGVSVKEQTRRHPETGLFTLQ

T4: RAGE-derived peptide 3 (human)
T4 construct: Synthetic peptide with a free carboxyl terminus
T4 peptide: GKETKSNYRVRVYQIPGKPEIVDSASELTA

T5: RAGE-derived peptide 4 (human)
T5 construct: Synthetic peptide with a free carboxyl terminus
T5 peptide: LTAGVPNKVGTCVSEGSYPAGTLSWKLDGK

T6: RAGE-derived peptide 10 (human)
T6 construct: Synthetic peptide with a free carboxyl terminus
T6 peptide: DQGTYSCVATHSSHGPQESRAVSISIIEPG

T7: RAGE-derived peptide 9 (human)
T7 construct: Synthetic peptide with a free carboxyl terminus
T7 peptide: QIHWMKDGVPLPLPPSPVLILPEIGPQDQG

T8: RAGE-derived peptide NtermR31 (human)
T8 construct: Synthetic peptide with a free carboxyl terminus
T8 peptide: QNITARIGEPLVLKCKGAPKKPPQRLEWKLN

T9: RAGE-derived peptide 8 (human)
T9 construct: Synthetic peptide with a free carboxyl terminus
T9 peptide: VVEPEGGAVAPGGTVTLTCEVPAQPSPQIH

T10: RAGE-derived peptide 6 (human)
T10 construct: Synthetic peptide with a free carboxyl terminus
T10 peptide: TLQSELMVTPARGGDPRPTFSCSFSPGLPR

T11: RAGE-derived peptide 2 (human)
T11 construct: Synthetic peptide with a free carboxyl terminus
T11 peptide: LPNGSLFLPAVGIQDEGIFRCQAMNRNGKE


Tests used:
RAGE-derived peptide 7 = molecular target: T1, RAGE-derived peptide 7; experiment: dot blot, non-denatured peptide on nitrocellulose
Description: (§1) Dot blots were used to evaluate the binding of antibodies to peptides or fragments of RAGE in a non-denatured form. […] Peptides were ordered and synthesized by Biotrend according to standard methods (solid phases peptide synthesis on AMS 222 synthesizer using Fmoc/tBu-chemistry) containing a free carboxyl terminus. Peptides were HPLC-purified and analysis of every peptide for purity was done using RP-HPLC. […] The identities of peptides were verified by mass spectrometry.
(§2) Dots consisting of different amount of protein/peptide (30 ng, 10 ng, 3 ng, 1 ng, 0.3 ng, 0.1 ng, 0.03 ng, and 0.01 ng) in a volume of 1 μl in 1×PBS were spotted onto a Hybond-ECL Nitrocellulose Membrane (Amersham, RPN68D) in duplicates. Membranes were dried and unspecific binding was blocked by shaking the membranes for 1 hour at room temperature with Western Blocking reagent (Roche, no. 1921673). Blocking reagent was discarded and the membranes were incubated with antibodies in a concentration of 7.14 nM (shaking, 1 hour at room temperature). […] Blots were washed 4 times (each time 5 minute incubation with shaking at room temperature) with 1×PBS. Blots were then incubated with goat anti mouse IgG AP secondary antibody (Sigma no. A-7434) diluted 1:2000 in Western Blocking Reagent (Roche, no. 192173). Incubation for 1 hour was as before (shaking, room temperature). The filters were washed 4 times (5 minutes each) in 1×PBS. Development of signals was according to manufacturers instructions with NBT/BCIP substrate solution (Roche, no. 1697471). Color development was stopped after 10 minutes with bi-distilled water.

RAGE-derived peptide 1 = molecular target: T2, RAGE-derived peptide 1; experiment: dot blot, non-denatured peptide on nitrocellulose
Description: as §1, §2

RAGE-derived peptide 5 = molecular target: T3, RAGE-derived peptide 5; experiment: dot blot, non-denatured peptide on nitrocellulose
Description: as §1, §2

RAGE-derived peptide 3 = molecular target: T4, RAGE-derived peptide 3; experiment: dot blot, non-denatured peptide on nitrocellulose
Description: as §1, §2

RAGE-derived peptide 4 = molecular target: T5, RAGE-derived peptide 4; experiment: dot blot, non-denatured peptide on nitrocellulose
Description: as §1, §2

RAGE-derived peptide 10 = molecular target: T6, RAGE-derived peptide 10; experiment: dot blot, non-denatured peptide on nitrocellulose
Description: as §1, §2

RAGE-derived peptide 9 = molecular target: T7, RAGE-derived peptide 9; experiment: dot blot, non-denatured peptide on nitrocellulose
Description: as §1, §2

[1] = molecular target: T8, RAGE-derived peptide NtermR31; experiment: dot blot, non-denatured peptide on nitrocellulose
Description: as §1, §2

RAGE-derived peptide 8 = molecular target: T9, RAGE-derived peptide 8; experiment: dot blot, non-denatured peptide on nitrocellulose
Description: as §1, §2

RAGE-derived peptide 6 = molecular target: T10, RAGE-derived peptide 6; experiment: dot blot, non-denatured peptide on nitrocellulose
Description: as §1, §2

RAGE-derived peptide 2 = molecular target: T11, RAGE-derived peptide 2; experiment: dot blot, non-denatured peptide on nitrocellulose
Description: as §1, §2

mouse RAGE (Mu-RAGE) = mouse RAGE (Mu-RAGE) (mouse, UniProt Q62151 23-340, limits assumed); experiment: Biacore SPR (Table 7, column Mouse-RAGE); paragraph 283: 'Table 7 shows that 4E5 did not bind to mouse RAGE (Mu-RAGE)'
Sequence of mouse RAGE (Mu-RAGE) (Q62151 23-340 limits assumed): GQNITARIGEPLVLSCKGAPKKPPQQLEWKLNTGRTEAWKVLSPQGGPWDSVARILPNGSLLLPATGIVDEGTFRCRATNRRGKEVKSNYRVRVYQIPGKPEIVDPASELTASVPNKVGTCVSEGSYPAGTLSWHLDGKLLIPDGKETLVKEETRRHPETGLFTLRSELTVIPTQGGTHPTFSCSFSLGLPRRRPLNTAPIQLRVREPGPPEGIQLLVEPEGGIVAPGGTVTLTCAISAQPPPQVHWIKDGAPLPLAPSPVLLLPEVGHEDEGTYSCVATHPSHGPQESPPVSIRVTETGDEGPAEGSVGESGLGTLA

[2] = molecular target: T12, recombinant human RAGE (plate coat of the competition ELISA of Example 1.4); experiment: competition ELISA on plates coated with recombinant human RAGE (2 µg/mL); competitor: biotinylated hybridoma-derived 7F9 (7F9-biotin), streptavidin-HRP, OD 450 nm; the unit comes from the axis 'Log MAbs (M)'
T12 construct: not shown: The carrier of the coated preparation, if it had one
T12 sequence (chain, as listed by the source limits assumed): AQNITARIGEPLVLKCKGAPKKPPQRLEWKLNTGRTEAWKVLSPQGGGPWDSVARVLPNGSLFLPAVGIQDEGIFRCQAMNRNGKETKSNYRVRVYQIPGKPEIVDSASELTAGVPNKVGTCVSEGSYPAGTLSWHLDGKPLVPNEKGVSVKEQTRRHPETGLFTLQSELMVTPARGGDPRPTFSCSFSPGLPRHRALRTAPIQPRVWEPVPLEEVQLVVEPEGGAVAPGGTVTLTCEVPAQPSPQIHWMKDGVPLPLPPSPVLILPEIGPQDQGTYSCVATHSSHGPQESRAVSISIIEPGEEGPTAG
Experimental: The purified chimeric anti-human RAGE monoclonal antibodies were tested for their ability to bind human RAGE in a competition ELISA. […] Equal volumes (50 μL) of each recombinant chimeric anti-human RAGE monoclonal antibodies or hybridoma-derived anti-human RAGE monoclonal antibodies and each corresponding biotinylated hybridoma-derived anti-RAGE mAbs were mixed. 50 μL of this mixture was then added to ELISA plates pre-coated with recombinant human RAGE at 2 μg/mL and incubated for 1.5 hours at room temperature. Wells were washed three times with PBS+0.05% Tween-20. Streptavidin HRP (1 mg/mL) was diluted 1:16000 in PBST+10% Superblock; 50 µL/well was added and the plates incubated for 1 hour at room temperature. Plates were washed 3 times with PBS+0.05% Tween-20. 50 µL of TMB solution (Sigma, St Louis, Mo.) was added to each well and incubated for 10 minutes at room temperature. The reaction was stopped by addition of IN sulphuric acid. Plates were read spectrophotometrically at a wavelength of 450 nm.

binding result (RAGE-derived peptide 7)	binding result (RAGE-derived peptide 1)	binding result (RAGE-derived peptide 5)	binding result (RAGE-derived peptide 3)	binding result (RAGE-derived peptide 4)	binding result (RAGE-derived peptide 10)	binding result (RAGE-derived peptide 9)	binding result [1]	binding result (RAGE-derived peptide 8)	binding result (RAGE-derived peptide 6)	binding result (RAGE-derived peptide 2)	binding result (mouse RAGE (Mu-RAGE))	EC50 [2] [nM]	Binder
no binding	no binding	no binding	no binding	no binding	no binding	no binding	no binding	no binding	no binding	no binding			anti-human RAGE monoclonal antibody 11E6 (murine, hybridoma-derived) (antibody, V domains shown, also called mAb11E6; ML37-11E6) VH: QIQLVQSGPELKKPGETVKISCKASGYTFTNFGMNWVKQAPGKGLKWMGYINTNTGESIYSEEFKGRFAFSLETSASTAYLQINNLKNEDTATYFCARSRMVTAYGMDYWGQGTSVTVSS VL: DIVMTQSQKFMSTSVGDRVSITCKASQNVGTAVAWYQQRPGQSPKLLIFSASNRYTGVPDRFTGSGSGTDFTLTLSNMQPEDLADYFCQQYSSYPLTFGVGTKLELKR
no binding	no binding	no binding	no binding	no binding	no binding	no binding	no binding	no binding	no binding	no binding	no binding		anti-human RAGE monoclonal antibody 4E5 (murine, hybridoma-derived) (antibody, V domains shown, also called mAb4E5; ML37-4E5) VH: QVQLQQSGAELVRPGTSVKVSCKASGYAFNNYLIEWIKQRPGQGLEWIGVINPGSGGTNHNEKFKVKATLTADKSSSTAYIQLSSLTSDDSAVYFCARSAGTARARFAYWGQGTLVTVSA VL: DIQMTQSPSSLSASLGERVSLTCRASQDIGSSLNWLQQEPDGTIKRLIYATSSLDSGVPKRFSGSRSGSDYSLTISSLESEDFVDYYCLQYASFPFTFGSGTKLEIKR
no binding	no binding	no binding	no binding	no binding	no binding	no binding	no binding	no binding	no binding	no binding		166	anti-human RAGE monoclonal antibody 7F9 (murine, hybridoma-derived) (antibody, V domains shown, also called mAb7F9; MAb 7F9) VH: EEKLEESGGGLVQLGGSMKISCVASGFTLSNYWMDWVRQSPEKGLEWIAEIRLKSNYYSTHYAESVKGRFSISRDDSKGSVSLQMDNLTAEDTGIYFCARNAYWYFDVWGTGTTVTVSS VL: DIVMTQSHKFMSTSVGDRVSATCKASQDVGTSVAWYQQKLGQSPKLLIYWTSTRHTGVPDRFTGSGSGTDFTLTISNVQSEDLADYFCQQYNNYPLTFGDGTKLELKR
